Data from PMC7203116, “Cryo-electron microscopy reveals two distinct type IV pili assembled by the same bacterium” (Nature Communications, 2020).

Target: the molecule itself
Assay: cryo-EM structure; single-particle cryoEM and helical reconstruction (SPRING) of pili isolated from T. thermophilus HB27; wide and narrow filaments boxed separately from the same micrographs; atomic models built de novo

Row | Protein | binding result
1 | PilA4, major pilin of Thermus thermophilus HB27 (subunit of the wide type IV pilus) (natural protein, UniProt Q72JC0 7-131, looked up, extra densities attributed to O-linked glycans at Ser59, Ser66 and Ser71; disulphide bond Cys89-Cys124, PilA4, major type IV pilin of Thermus thermophilus HB27; mature pilin of 125 amino acids (Phe1 to Pro125) after cleavage of the class III signal peptide; all residues of the mature protein are in the model PDB 6XXD. numbers count on: the mature protein; Assembled as a helical filament (wide pilus; rise 9.33 Å, twist 92.5°); the deposited model holds 16 identical subunits; also called wide pilus …) FTLIELLIVIAIIAILAAVLIPNLLAARKRANDTVVTAYLNDAVKFQEMYQIDNNSYTSNQAALISLGLKSTPANVTFSIVSASANSYCMIAGHSGGTVWFAATPDKGVYKTNTAVTSSQPESCP | binds
2 | PilA5 (TT_C1836), pilin of Thermus thermophilus HB27 (subunit of the narrow type IV pilus) (natural protein, UniProt Q72GL2 6-116, looked up, extra density attributed to an O-linked glycan at Ser73; disulphide bond Cys60-Cys88, 111 amino acids; all residues of the mature protein are in the model PDB 6XXE. numbers count on: the mature protein; Assembled as a helical filament (narrow pilus; rise 11.26 Å, twist 84.3°); the deposited model holds 16 identical subunits; also called Tt17; narrow pilus subunit; source: endogenous, pili isolated from T. thermophilus HB27 cells (ethanolamine buffer pH 10.5, ammonium sulfate …)) FTLIELAIVIVIIGILVAIAVPRFVDLTDQANQANVDATAAAVRSAYAIATVQAKGIPTCDQVFANPEGGSTSGSTWTSSDNSTTVSCNASADTFTISRGGKTRTLNLTVN | binds
